We go through two molecules from article PMC8960874 (2022).

Test [1] deals with T1, SARS-CoV-2 spike receptor binding domain (RBD) protein with a C-terminal hexahistidine tag (SARS-CoV-2, UniProt P0DTC2 319-541). Put plainly: BLI. Background: In BLI a coated tip is dipped into the sample, and binding shifts an interference pattern.
In test [2] the target is T1, SARS-CoV-2 spike receptor binding …. Put plainly: BLI. This is another data set of the same source.

A word on the Kd: it is the equilibrium constant for the complex coming apart. The term koff denotes the rate constant with which the complex falls apart. Read a high koff as fast dissociation.

B1: Clone 6 mAb (human IgG1 with mouse variable regions) (antibody, V domains shown)
VH: QVQLQQSAAELARPGASVKMSCKASGYTFTSYTMHWVKQRPGQGLEWIGYINPTSGYTEYNQNFKDKTTLTADKSSSTAYMQLNSLTSEDSAVYYCAREGHRVGPAYWGQGTLVTVSA
VL: not shown
B1 gave a Kd in test [1] of 1.89 pM. For the same molecule, the koff in test [2] worked out at 3.65e-07 s⁻¹.

B2: Clone 2 mAb (human IgG1 with mouse variable regions) (antibody, V domains shown)
VH: EVQLQQSGPELVKPGASVKISCKASGYSFTGYSMNWMKQSPEKSLEWIGEINPSTGGTTDNQKFKAKATLTVDKSSSTAYMQLKSLTSEDSAVYYCARSRGDYWGQGTSVTVSS
VL: DIVLTQSPASLAVSLGQRATISCRASESVEYYGTSLMQWYQQKPGQPPKVLIYAASNVESGVPARFSGSGSGTDFSLNIHPVEEDDIAMYFCQQSRKVPWTFGGGTKLEIK
In turn, B2 came in with a Kd in test [1] of 1.58 pM. Moreover, the koff in test [2] came to 1.49e-07 s⁻¹.
